B1: Hα1-210 fused to thioredoxin (Trx-Hα1-210) (receptor)
chain: SEHETRLVAKLFKDYSSVVRPVEDHRQVVEVTAGLQLIQLINVDEVNQIVTTNVRLKQGDMVDLPRPSCVTLGVPLFSHLQDEQWVDYNLKWNPDDYGGVKKIHIPSEKIWRPDLVLYNNADGDFAIVKFTKVLLQYTGHITWTPPAIFKSYCEIIVTHFPFDEQNCSMKLGTWTYDGSVVAINPESDQPDLSNFMESGEWVIKESRGWKHSVTYSCCPDTPYLDITYHFVMQRL
notes: Solubilised from inclusion bodies in 9 M urea and dialysed; also called Trx-H1α-210; 'more native' fragment; not shown: thioredoxin (Trx) encoded by the pThioHis-A vector (Invitrogen); the vector's thioredoxin may
B2: Hα1-205 expressed with no fusion partner (receptor)
chain: SEHETRLVAKLFKDYSSVVRPVEDHRQVVEVTAGLQLIQLINVDEVNQIVTTNVRLKQGDMVDLPRPSCVTLGVPLFSHLQDEQWVDYNLKWNPDDYGGVKKIHIPSEKIWRPDLVLYNNADGDFAIVKFTKVLLQYTGHITWTPPAIFKSYCEIIVTHFPFDEQNCSMKLGTWTYDGSVVAINPESDQPDLSNFMESGEWVIKESRGWKHSVTYSCCPDTPYLDITYHF
notes: The 5' primer adds an initiation codon (and a Gly codon) before residue 1; also called 'less native' fragment

How the values were obtained:
[1] = target: T1, α-bungarotoxin (UniProt P60615 22-95); assay: blot overlay with 125I-α-BTX, 20 µg fragment
T1 sequence: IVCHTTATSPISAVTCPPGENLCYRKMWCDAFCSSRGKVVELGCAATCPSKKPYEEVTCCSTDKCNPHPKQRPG

[2] = target: mAb 198; assay: competition ELISA: fragment preincubated with mAb 198, binding of mAb 198 to coated Torpedo AChR read
Experimental: Microtiter plates were coated with Torpedo AChR (1 μg/ml) in PBS and incubated overnight at 4° C.

Binder	binding result [1]	IC50 [2] [nM]
B1	binds	300
B2		3300

— US20020081652A1 (YEDA RESEARCH AND DEVELOPMENT, published 2002)
